Publication PMC9352680, “A comprehensive thermodynamic model for RNA binding by the Saccharomyces cerevisiae Pumilio protein PUF4”
Where a chain is given by its changes, count along the chain named. In names and notes the source's numbering stands.

T1: PUF4 RNA-binding domain (Saccharomyces cerevisiae, UniProt P25339 537-888)
T1 sequence: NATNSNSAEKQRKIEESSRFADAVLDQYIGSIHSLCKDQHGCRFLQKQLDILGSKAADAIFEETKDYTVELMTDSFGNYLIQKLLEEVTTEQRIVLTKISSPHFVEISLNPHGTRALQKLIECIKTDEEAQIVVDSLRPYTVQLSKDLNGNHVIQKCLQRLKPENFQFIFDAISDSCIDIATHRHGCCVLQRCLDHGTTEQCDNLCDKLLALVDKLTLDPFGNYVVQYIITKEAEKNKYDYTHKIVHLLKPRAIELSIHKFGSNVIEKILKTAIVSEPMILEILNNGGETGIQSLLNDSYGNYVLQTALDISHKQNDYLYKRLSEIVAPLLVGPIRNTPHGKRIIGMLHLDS

B1: Ie_S2_P5E.1_K5.1_C5.1_H5.1_A5.1_[+6TCTC]_F5.1_T5.1 (ssRNA)
RNA: UUUGAUUAAUAUGAUAUCGUUCUUUCUUGUAUUUCUCAUUAUUCUUUCUCGAUAUCAUAUUAAUCUUU
B2: Ie_S2_P5E.1_K5.1_C5.1_H5.1_A5.1_[+7CCTC]_F5.1_T5.1 (ssRNA)
RNA: B1 RNA with U34A, U36C, C37U, A38C
B3: Ie_S2_P5E.1_K5.1_C5.1_H5.1_A5.1_F5.1_[+8TTCC]_T5.1 (ssRNA)
RNA: B1 RNA with U34A, C35U, C37U, A38C, U39C
B4: Ie_S2_P5E.1_K5.1_C5.1_H5.1_A5.1_[+7TTCC]_F5.1_T5.1 (ssRNA)
RNA: B1 RNA with U34A, C35U, A38C
B5: Ie_S2_P5E.1_K5.1_C5.1_H5.1_A5.1_[+7CTCT]_F5.1_T5.1 (ssRNA)
RNA: B1 RNA with U34A, A38U
B6: Ie_S2_P5E.1_K5.1_C5.1_H5.1_A5.1_F5.1_[+8CCCT]_T5.1 (ssRNA)
RNA: B1 RNA with U34A, C35U, U36C, A38C
B7: Ie_S2_P5E.1_K5.1_C5.1_H5.1_A5.1_[+6CCCT]_F5.1_T5.1 (ssRNA)
RNA: B1 RNA with U34C, U36C, C37U
B8: Ie_S2_P5E.1_K5.1_C5.1_H5.1_A5.1_[+7TCTC]_F5.1_T5.1 (ssRNA)
RNA: B1 RNA with U34A, C35U, U36C, C37U, A38C
B9: Ie_S2_P5E.1_K5.1_C5.1_H5.1_A5.1_[+7CCCT]_F5.1_T5.1 (ssRNA)
RNA: B1 RNA with U34A, U36C, A38U
B10: Ie_S2_P5E.1_K5.1_C5.1_H5.1_A5.1_[+6CCTC]_F5.1_T5.1 (ssRNA)
RNA: B1 RNA with U34C
B11: Ie_S2_P5E.1_K5.1_C5.1_H5.1_A5.1_F5.1_[+8CCTC]_T5.1 (ssRNA)
RNA: B1 RNA with U34A, C35U, U36C, A38U, U39C
B12: Ib_S2_P3E.1_K3.1_C3.1_H3.1_[G2C]_[T3C]_A3.1_F3.1_T3.1 (ssRNA)
RNA: UUUGAUUAAUAUGAUAUCGUUCUUUCUUCCAUAUAUUCUUUCUCGAUAUCAUAUUAAUCUUU
B13: Ib_S2_P3E.1_K3.1_C3.1_H3.1_[G2A]_[T3C]_A3.1_F3.1_T3.1 (ssRNA)
RNA: B12 RNA with C29A
B14: Ic_S2_P3E.1_K3.1_C3.1_H3.1_A3.1_[T5C]_F3.1_T3.1 (ssRNA)
RNA: B12 RNA with C29G, C30U, U32C
B15: Ib_S2_P3E.1_K3.1_C3.1_H3.1_[G2C]_[A4C]_A3.1_F3.1_T3.1 (ssRNA)
RNA: B12 RNA with C30U, A31C
B16: Ib_S2_P3E.1_K3.1_C3.1_H3.1_[G2T]_[T3A]_A3.1_F3.1_T3.1 (ssRNA)
RNA: B12 RNA with C29U, C30A
B17: Ie_S2_P5E.1_K5.1_C5.1_H5.1_A5.1_F5.1_[+9T]_T5.1 (ssRNA)
RNA: UUUGAUUAAUAUGAUAUCGUUCUUUCUUGUAUUAUUUAUUCUUUCUCGAUAUCAUAUUAAUCUUU
B18: Ie_S2_P5E.1_K5.1_C5.1_H5.1_A5.1_F5.1_[+8C]_T5.1 (ssRNA)
RNA: B17 RNA with U36C
B19: Ie_S2_P5E.1_K5.1_C5.1_H5.1_[+4TTCCT]_A5.1_F5.1_T5.1 (ssRNA)
RNA: UUUGAUUAAUAUGAUAUCGUUCUUUCUUGUAUUCCUUUAUUAUUCUUUCUCGAUAUCAUAUUAAUCUUU
B20: Ie_S2_P5E.1_K5.1_C5.1_H5.1_A5.1_[+7CCTCT]_F5.1_T5.1 (ssRNA)
RNA: B19 RNA with C34A, U36C, U38C, A39U
B21: Ie_S2_P5E.1_K5.1_C5.1_H5.1_A5.1_[+6TCTCT]_F5.1_T5.1 (ssRNA)
RNA: B19 RNA with C34U, U37C
B22: Ie_S2_P5E.1_K5.1_C5.1_H5.1_A5.1_[+5TCTCT]_F5.1_T5.1 (ssRNA)
RNA: B19 RNA with C35U, U36C
B23: Ie_S2_P5E.1_K5.1_C5.1_H5.1_A5.1_[+7TTCCT]_F5.1_T5.1 (ssRNA)
RNA: B19 RNA with C34A, C35U, U37C, U38C, A39U
B24: Ie_S2_P5E.1_K5.1_C5.1_H5.1_A5.1_[+7CTCTC]_F5.1_T5.1 (ssRNA)
RNA: B19 RNA with C34A, U37C, A39C
B25: Ie_S2_P5E.1_K5.1_C5.1_H5.1_A5.1_[+7TCTCT]_F5.1_T5.1 (ssRNA)
RNA: B19 RNA with C34A, C35U, U36C, U38C, A39U
B26: Ie_S2_P5E.1_K5.1_C5.1_H5.1_A5.1_F5.1_[+8CTCTC]_T5.1 (ssRNA)
RNA: B19 RNA with C34A, C35U, U36C, U38C, A39U, U40C
B27: Ie_S2_P5E.1_K5.1_C5.1_H5.1_A5.1_[+5CCCTT]_F5.1_T5.1 (ssRNA)
RNA: B19 RNA with U33C
B28: Ie_S2_P5E.1_K5.1_C5.1_H5.1_A5.1_[+5TTCCT]_F5.1_T5.1 (ssRNA)
RNA: B19 RNA with C34U, U36C
B29: Ie_S2_P5E.1_K5.1_C5.1_H5.1_A5.1_[+6CCTCT]_F5.1_T5.1 (ssRNA)
RNA: B19 RNA with U37C
B30: Ie_S2_P5E.1_K5.1_C5.1_H5.1_[+4CCCTT]_A5.1_F5.1_T5.1 (ssRNA)
RNA: B19 RNA with U32C, U33C, C35U
B31: Ie_S2_P5E.1_K5.1_C5.1_H5.1_A5.1_[+5CTCTC]_F5.1_T5.1 (ssRNA)
RNA: B19 RNA with U33C, C34U, U37C
B32: Ie_S2_P5E.1_K5.1_C5.1_H5.1_A5.1_[+5CCTCT]_F5.1_T5.1 (ssRNA)
RNA: B19 RNA with U33C, C35U, U36C
B33: Ie_S2_P5E.1_K5.1_C5.1_H5.1_A5.1_[+6TTCCT]_F5.1_T5.1 (ssRNA)
RNA: B19 RNA with C34U, C35U, U36C, U37C
B34: Ie_S2_P5E.1_K5.1_C5.1_H5.1_A5.1_F5.1_[+8CCCTT]_T5.1 (ssRNA)
RNA: B19 RNA with C34A, C35U, U36C, U37C, U38C, A39U
B35: Ie_S2_P5E.1_K5.1_C5.1_H5.1_A5.1_[+7CC]_F5.1_T5.1 (ssRNA)
RNA: UUUGAUUAAUAUGAUAUCGUUCUUUCUUGUAUUACCUUAUUCUUUCUCGAUAUCAUAUUAAUCUUU
B36: Ie_S2_P5E.1_K5.1_C5.1_H5.1_A5.1_F5.1_[+9TT]_T5.1 (ssRNA)
RNA: B35 RNA with C35U, C36U
B37: Ie_S2_P5E.1_K5.1_C5.1_H5.1_A5.1_[+7TC]_F5.1_T5.1 (ssRNA)
RNA: B35 RNA with C35U
B38: Ie_S2_P5E.1_K5.1_C5.1_H5.1_A5.1_F5.1_[+8TC]_T5.1 (ssRNA)
RNA: B35 RNA with C35U, C36U, U37C
B39: Ie_S2_P5E.1_K5.1_C5.1_H5.1_A5.1_[+6TCT]_F5.1_T5.1 (ssRNA)
RNA: UUUGAUUAAUAUGAUAUCGUUCUUUCUUGUAUUUCUAUUAUUCUUUCUCGAUAUCAUAUUAAUCUUU
B40: Ie_S2_P5E.1_K5.1_C5.1_H5.1_A5.1_F5.1_[+9CTT]_T5.1 (ssRNA)
RNA: B39 RNA with U34A, C35U, A37C
B41: Ie_S2_P5E.1_K5.1_C5.1_H5.1_A5.1_F5.1_[+8CCC]_T5.1 (ssRNA)
RNA: B39 RNA with U34A, C35U, U36C, A37C, U38C
B42: Ie_S2_P5E.1_K5.1_C5.1_H5.1_A5.1_[+7TCT]_F5.1_T5.1 (ssRNA)
RNA: B39 RNA with U34A, C35U, U36C, A37U
B43: Ie_S2_P5E.1_K5.1_C5.1_H5.1_A5.1_[+7CTC]_F5.1_T5.1 (ssRNA)
RNA: B39 RNA with U34A, A37C
B44: Ie_S2_P5E.1_K5.1_C5.1_H5.1_A5.1_F5.1_[+9CTC]_T5.1 (ssRNA)
RNA: B39 RNA with U34A, C35U, A37C, U39C
B45: Ie_S2_P5E.1_K5.1_C5.1_H5.1_A5.1_[+7CCT]_F5.1_T5.1 (ssRNA)
RNA: B39 RNA with U34A, U36C, A37U
B46: Ie_S2_P5E.1_K5.1_C5.1_H5.1_A5.1_F5.1_[+8TTC]_T5.1 (ssRNA)
RNA: B39 RNA with U34A, C35U, A37U, U38C
B47: Ie_S2_P5E.1_K5.1_C5.1_H5.1_A5.1_[+6TTC]_F5.1_T5.1 (ssRNA)
RNA: B39 RNA with C35U, U36C
B48: Ie_S2_P5E.1_K5.1_C5.1_H5.1_A5.1_[+7CTT]_F5.1_T5.1 (ssRNA)
RNA: B39 RNA with U34A, A37U
B49: Ie_S2_P5E.1_K5.1_C5.1_H5.1_A5.1_F5.1_[+8TTT]_T5.1 (ssRNA)
RNA: B39 RNA with U34A, C35U, A37U
B50: Ie_S2_P5E.1_K5.1_C5.1_H5.1_A5.1_F5.1_[+9CCT]_T5.1 (ssRNA)
RNA: B39 RNA with U34A, C35U, A37C, U38C
B51: Ie_S2_P5E.1_K5.1_C5.1_H5.1_A5.1_F5.1_[+8CCT]_T5.1 (ssRNA)
RNA: B39 RNA with U34A, C35U, U36C, A37C

What follows are binders tested against T1, PUF4 RNA-binding domain (assay: Mg; RNA-MaP; 20 mM Na-HEPES pH 7.4, 30 mM KOAc, 0.75 mM MgCl2, 0.1% Tween-20, 5% glycerol, 0.1 mg/mL BSA, 2 mM DTT; 25 C; 0.0125-409.6 nM protein). Conditions: tags: N-His6-TEV cleaved; C-SNAP kept, Cy3B-labelled; label: tethered on chip by stalled RNA polymerase.
B1 showed a Kd of 75.2 nM.
For B2, the Kd was 49 nM.
Work on B3 yielded a Kd of 9.45 nM.
For B4, the Kd was 10.1 nM.
Work on B5 yielded a Kd of 51.9 nM.
Binder B6 has a Kd of 11.6 nM.
Work on B7 yielded a Kd of 15.6 nM.
Work on B8 yielded a Kd of 18.3 nM.
B9 was tested, and the Kd was 74 nM.
With B10 the Kd was 99.6 nM.
B11 gave a Kd of 15.8 nM.
B12 was tested, and the Kd was > 2300 nM.
In the case of B13, the Kd is reported as > 2300 nM.
B14 showed a Kd of 1.76 nM.
Work on B15 yielded a Kd of 2150 nM.
B16 was tested, and the Kd was 1460 nM.
With B17 the Kd was 5.9 nM.
B18 gave a Kd of 11.6 nM.
With B19 the Kd was 18.1 nM.
With B20 the Kd was 57.6 nM.
B21 was tested, and the Kd was 12.9 nM.
For B22, the Kd was 9.67 nM.
B23 was tested, and the Kd was 7.84 nM.
In the case of B24, the Kd is reported as 47.3 nM.
In the case of B25, the Kd is reported as 17.2 nM.
Binder B26 has a Kd of 13.1 nM.
Work on B27 yielded a Kd of 16.3 nM.
Work on B28 yielded a Kd of 13.2 nM.
Binder B29 has a Kd of 20.8 nM.
Binder B30 has a Kd of 6.38 nM.
B31 showed a Kd of 13.3 nM.
B32 showed a Kd of 12.8 nM.
For B33, the Kd was 12.3 nM.
Work on B34 yielded a Kd of 15.2 nM.
B35 gave a Kd of 58.9 nM.
With B36 the Kd was 8.73 nM.
B37 was tested, and the Kd was 11.8 nM.
B38 gave a Kd of 10.3 nM.
Work on B39 yielded a Kd of 2.42 nM.
B40 was tested, and the Kd was 10.5 nM.
Binder B41 has a Kd of 12.8 nM.
B42 gave a Kd of 15.8 nM.
B43 gave a Kd of 42.2 nM.
Work on B44 yielded a Kd of 22.6 nM.
B45 showed a Kd of 31.6 nM.
In the case of B46, the Kd is reported as 7.64 nM.
With B47 the Kd was 28.6 nM.
With B48 the Kd was 25.2 nM.
With B49 the Kd was 8.05 nM.
Work on B50 yielded a Kd of 7.29 nM.
B51 was tested, and the Kd was 16.6 nM.
